The supplement of paper PMC9170038

Columns and labels:
MS2 coat protein [1] = assay: apparent KD of MS2 coat protein, switch ON state; designed switch direction (-1 OFF switch, 1 ON switch): 1; higher = weaker reporter binding; settings: FMN input: 0 or 200 uM; Eterna round: R93 (includes R88 designs)
Summary of the method: (§1)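 Designed RNA switches were transcribed on-chip from Illumina sequencing clusters and titrated with SNAP-549-labelled MS2 coat protein in twofold steps from 0.7 or 1.5 nM up to 3 µM. Each step lasted 0.8–1.5 h at first and 10–20 min by the end, in 100 mM Tris-HCl pH 7.5, 80 mM KCl and 4 mM MgCl2, without or with constant ligand. Apparent KD is the median, for each design, of fits to normalised cluster binding curves.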

MS2 coat protein [2] = assay: apparent KD of MS2 coat protein, switch OFF state (with FMN for OFF switches, without FMN for ON switches); designed switch direction (-1 OFF switch, 1 ON switch): 1; higher = weaker reporter binding; settings: FMN input: 0 or 200 uM; Eterna round: R93 (includes R88 designs)
Summary of the method: as §1

| Sequence | apparent KD of MS2 coat protein (MS2 coat protein [1]) [nM] | apparent KD of MS2 coat protein (MS2 coat protein [2]) [nM] |
| --- | --- | --- |
| AAGAAACAUGAGGAUCACCCAUGUAAGAAUAUGGGAGGAUAUACAAGGACAAGAGUCAAGGUAGAAGGCCUAAGAA [Mat - Same State 1 - Meechl mod - D143] | 33 | 118 |
| CAAACAACAACACAGGAUAUACAUAUAAUAACAUGAGGAUCACCCAUGUAAGGCAAAAAUAAGCUGUAGAAGGGUGAACACACAA [Default title] | 10.6 | 14.1 |
| AAAAAACAUGAGGAUCACCCAUGUCGAAAGACGUGAGGAUAUGUACAGACUUCGGUCUGUACAGAAGGCACGUAAA [SS1 - 1040] | 14.3 | 33.8 |
| AGGAAGGAGAGAGAGGAUAUCCAAAGGAAAACAUGAGGAUCACCCAUGUAGAAGGUAGGAAAUUGGGAGAAGGCUCAAGAGACAG [salish99-ss2-126] | 16.8 | 49.5 |
| AACAAUCUAUCUGAGGAUAUCAUUUCAAAGACAUGAGGAUCACCCAUGUGCAGGAAAACUGCAAAUGAGAAGGCAGAUAGAUUGA [SS2: 1107] | 10.3 | 14.5 |
| AGAAAACAUGAGGAUCACCCAUGUGAUAACAUGGGAGGAUAUACGAGGACGAGAGUCAAGGUAGAAGGCCUAAAGA [Garnet 72] | 111 | 114 |
| AACUACAUUAUGAAGGAUAUCCGCGUCUAGACAUGAGGAUCACCCAUGUAUACUUGGAUCAUGCAGGAGAAGGUCAAGGGUGAUU [JR_SS002_Sub1209] | 178 | 122 |
| AACAAUCUAUCUGAGGAUAUCAUUAAAAAGACAUGAGGAUCACCCAUGUAGCAGGAAACUGCAUAUGAGAAGGCAGAUAGAUUGA [SS2: 1123] | 12.5 | 13.9 |
| AGCCAACAUGAGGAUCACCCAUGUCAAACAAGUCAAGGAUAUGGGCCUCUAAAAGGAGUACCAGAAGGUGAGAAAU [Vequatge] | 123 | 52.6 |
| AAAAAUCCAGCGCAGGAUAUCGCAGGGUGCACAUGAGGAUCACCCAUGUGUACCCAAACACCCUGCGAGAAGGGCGUUGGAAAAAA [SameState-I] | 9.65 | 11.1 |
| AACAAUCUAUCUGAGGAUAUGUGUCGAAAGACAUGAGGAUCACCCAUGUGAAAACAUGAAAAAUCACAGAAGGCAGAUAGAUUGA [SS2: 1143] | 45.8 | 146 |
| AAAAAACAUGAGGAUCACCCAUGUAAAAAAAACACAGGAUAUCCCUUUUUUAAAUAAAAAGGAGAAGGGUGAAAAA [Nob's Hobby 8 - Jieux - Same State 1] | 24.1 | 30.9 |
| AGGAAACAUGAGGAUCACCCAUGUAAAAAUAUGGGAGGAUAUACAAAGACGAAAGUGAGAGUAGAAGGCCUAAAAG [Garnet 18] | 35.6 | 124 |
| AAUAAUUAUAUGGAGGAUAUCCGUAAUAAGACAUGAGGAUCACCCAUGUAAUAAGGGUAAAUAAAGGAGAAGGCCAAGGGUGAAA [JR_SS002_Sub003] | 98.4 | 184 |
| GGAUAACAUGAGGAUCACCCAUGUACAUGGGUACAAGGAUAUGUAAAAUAAAACAAACAAACAGAAGGUGUAAAAA [I'm in a state] | 228 | 163 |
| ACCCGACAUGAGGAUCACCCAUGUAAACAAUCAUGAGGAUAUCCGGAGCAAAUGCUCAAGGGAGAAGGCAUAAAAG [Onrequus] | 29.5 | 132 |
| AAAAAACAUGAGGAUCACCCAUGUAAAAAAAACACAGGAUAUCCCUUUUUUAAAUGGGAGGGAGAAGGGUGAAAAA [Nob's Hobby 12 - Jieux - Same State 1] | 17.4 | 29.3 |
| AACAAUCUAUCUGAGGAUAUCAUAUAAAAGACAUGAGGAUCACCCAUGUAGCAGGAAACUGCAUAUGAGAAGGCAGAUAGAUUGA [SS2: 1121] | 7.5 | 10.8 |
| AAAAGACAUGAGGAUCACCCAUGUAAAAACGUAGGAGGAUAUGUAUGGAAACCAGACUGUACAGAAGGCCUCUGUC [SS1 - 72] | 22.2 | 21.1 |
| AAUCCAACUAGUCAGGAUAUCAGGCGUAAGACAUGAGGAUCACCCAUGUCCUAAGAACAAGUAACUGAGAAGGGACAGGGCGACC [JR_SS002_Sub411] | 57.6 | 62 |
| AUAAAACAUGAGGAUCACCCAUGUCAACAAAGUCGAGGAUAUGGGCAAAUAAAAUAAGAACCAGAAGGCGAAUAAU [Teenbexe] | 32.2 | 593 |
| AACAAUCUAUCUGAGGAUAUGUGUCAAAAGACAUGAGGAUCACCCAUGUAAAAACAUGGGAAAACACAGAAGGCAGAUAGAUUGA [SS2: 1151] | 369 | 184 |

| Sequence | apparent KD of MS2 coat protein (MS2 coat protein [1]) [nM] | apparent KD of MS2 coat protein (MS2 coat protein [2]) [nM] |
| --- | --- | --- |
| AAAACACAUGAGGAUCACCCAUGUAAAAACAAGGGAGGAUAUGCUUGGAAAACAUGCUAUGCAGAAGGCUCAAGUG [SS1 - 11] | 42.9 | 31.1 |
| AUAAAACAUGAGGAUCACCCAUGUAGAAAUAUGGGAGGAUAUACUAGAUCGAAAGAUCUAGUAGAAGGCCUAAAAG [JL Mod of Eli 1] | 27.6 | 60.7 |
| AAAAAACAUGAGGAUCACCCAUGUCUUCGGACAUGAGGAUAUGUACAGACUUCGGUCUGUACAGAAGGCAUGUAAA [SS1 - 1017] | 323 | 61.2 |
| AACAAUCUAUCUGAGGAUAUGUGUCGAAAGACAUGAGGAUCACCCAUGUCAAAACAUGGGAAGAUACAGAAGGCAGAUAGAUUGA [SS2: 1159] | 79.9 | 417 |
| AUAUGAGCUAUGGAGGAUAUCCAUAAUAAAACAUGAGGAUCACCCAUGUAAGAAAGAAAAGAAUGGGAGAAGGCCAUAGCUCAAU [SS 2 M44] | 11.6 | 13.1 |
| GAAAAACAUGAGGAUCACCCAUGUAGAAAUAUGGGAGGAUAUACAAAGACGGAAGUCAAAGUAGAAGGCCUAAAAG [Mat - Same State 1 - Eli mod - D7] | 27.9 | 71.2 |
| AGCUAACAUGAGGAUCACCCAUGUCCGCUAAACCAAGGAUAUGGGACGAAUAAAAUCGGACCAGAAGGUGGCCGAC [Qureaed] | 218 | 222 |
| AAGAAACAUGAGGAUCACCCAUGUGAGAUAAACACAGGAUAUGCGAAAAGAAACAAAGAAGCAGAAGGGUGAAGAA [Mat - Same State 1 - Tesla mod - 55] | 34.9 | 126 |
| AACAGACAUGAGGAUCACCCAUGUAGAAUUAUGGGAGGAUAUACAAAGACGAGAGUCAGAGUAGAAGGCCUAGGAG [salish99-ss1-162] | 22.1 | 44.3 |
| CUGGACAUAGUACAGGAUAUAUGAAUAGUCACAUGAGGAUCACCCAUGUGCAUUUAUAUGCGCACAUAGAAGGGUGGUAGUUAAG [Mat - Same state - Malcolm Mod - D140] | 180 | 57.9 |
| AACAAUCUAUCUGAGGAUAUCAUGUCAAAGACAUGAGGAUCACCCAUGUACCAGGAAACUGGUUAUGAGAAGGCAGAUAGAUUGA [SS2: 1115] | 37.3 | 1290 |
| AGAAGGUGGGUCGAGGAUAUCAGGCACGCCACAUGAGGAUCACCCAUGUUUUUGGCACCGCCCAAUGAGAAGGUGAACACCUUCA [Cesobe] | 9.34 | 12.4 |
| GCAGGGCUACACUAGGAUAUGGGUGUCUAAACAUGAGGAUCACCCAUGUGAUGGCAAAACAAAGCUCAGAAGGAGUCGUAGCCCA [Bebirare] | 14 | 24.3 |
| AAAUAAAUAAGAGAGGAUAUGUCAGAGAAAACAUGAGGAUCACCCAUGUGAUAAUAAAAAGGGUGACAGAAGGCUCAAAACAAAC [Topaz 52] | 19.9 | 59.3 |
| AACAAUCUAUCUGAGGAUAUGUGUCAAAAGACAUGAGGAUCACCCAUGUAAAAACAUGAAAAAACACAGAAGGCAGAUAGAUUGA [SS2: 1148] | 41.8 | 59.3 |
| AAAAAACAUGAGGAUCACCCAUGUCCUCGGACAUGAGGAUAUGUACAGACUUCGGUCUGUACAGAAGGCAUGUAAA [SS1 - 1018] | 901 | 684 |
| GAAAAACAUGAGGAUCACCCAUGUUAAUAUAUGGGAGGAUAUACAAAGACGAAAGUCAAAGUAGAAGGCCUAAAAG | 19.7 | 43.3 |
| AACAAACAUGAGGAUCACCCAUGUAGAAACAUGGGAGGAUAUACGAAGACGAAAGUCAAAGUAGAAGGCCUAAAAA [Garnet 91] | 69.1 | 60.9 |
| AUUAAACAUGAGGAUCACCCAUGUGGCAAAAGCACAGGAUAUAGGAGUCCGAGCAGACAACUAGAAGGGUGGAAAA [Rixelexe] | 28.8 | 53.7 |
| GUUAGGAAGAGAGAGGAUAUCCAAAGGAAAACAUGAGGAUCACCCAUGUAAAAGGUAGGAAAUUGGGAGAAGGCUCAAGAGAGAG [salish99-ss2-079] | 31.9 | 37.5 |
| UUUAAUUAUACGAAGGAUAUCGAUAAUAAGACAUGAGGAUCACCCAUGUAAUAUUUUUCCAUAUUCGAGAAGGUCGCGGGUGAAC [JR_SS002_Sub601] | 25 | 16.9 |
| GAAAAACAUGAGGAUCACCCAUGUAAAAAAAUGGGAGGAUAUACAAAGACGAAAGUCAAAGUAGAAGGCCUGAAAG [same state 2] | 18 | 81.8 |
